Measurements as given in FireProtDB (doi:10.1111/febs.13659).

B1: Cytosolic beta-glucosidase, O61594 (parent)
chain: MKLLVVLSLVAVACNASIVRQQRRFPDDFLFGTATASYQIEGAWDEDGKGENIWDYMVHNTPEVIRDLSNGDIAADSYHNYKRDVEMMRELGLDAYRFSLSWARILPTGMANEVNPAGIAFYNNYIDEMLKYNITPLITLYHWDLPQKLQELGGFANPLISDWFEDYARVVFENFGDRVKMFITFNEPREICFEGYGSATKAPILNATAMGAYLCAKNLVTAHAKAYYLYDREFRPVQGGQCGITISVNWFGPATPTPEDEMAAELRRQGEWGIYAHPIFSAEGGFPKELSDKIAEKSAQQGYPWSRLPEFTEEEKAFVRGTSDLIGVNHYTAFLVSATERKGPYPVPSLLDDVDTGSWADDSWLKSASAWLTLAPNSIHTALTHLNNLYNKPVFYITENGWSTDESRENSLIDDDRIQYYRASMESLLNCLDDGINLKGYMAWSLMDNFEWMEGYIERFGLYEVDFSDPARTRTPRKAAFVYKHIIKHRVVDYEYEPETMVMTIDEGH

Variants of: B1
Conditions: Spodoptera frugiperda, pH 6, Thermal, Potassium phosphate 10mM, transition: 2, structure 5CG0, whole UniProt chain shown
[1] = Differential Scanning Fluorimetry

Row | Variant | Tm (CD) [°C] | change of melting temperature, mutant - wild type (higher = more stable) (CD) [°C] | ddG of mutation (higher = less stable) (CD) [kJ/mol] | unfolding enthalpy (calorimetric) (CD) [kJ/mol] | unfolding free energy (CD) [kJ/mol] | Tm [1] [°C] | change of melting temperature, mutant - wild type (higher = more stable) [1] [°C]
1 | A263F | 39.6 | -6.4 | 1.8 | 185 | 95.3 | 40.6 | -4.4
2 | S358A | – | – | – | – | – | 42 | -3
3 | D260A | – | – | – | – | – | 40.8 | -4.2
4 | L350A | 43.5 | -2.5 | 2.93 | 257 | 94.2 | 43.8 | -1.2
5 | L100A | 46.4 | 0.4 | -3.39 | 222 | 100 | 47.6 | 2.6
6 | F334A | 42.9 | -3.1 | 4.64 | 303 | 92.5 | 42.5 | -2.5
7 | N391A | 44.4 | -1.6 | – | – | – | 46 | 1
8 | K366A | 41.5 | -4.5 | 5.23 | 312 | 91.9 | 41 | -4
9 | N249A | 38.5 | -7.5 | 3.93 | 202 | 93.2 | 39 | -6
10 | M262F | 45.7 | -0.3 | -2.22 | 384 | 99.3 | 45 | 0
11 | L389A | 46.4 | 0.4 | -2.8 | 339 | 99.9 | 46.6 | 1.6
12 | E265A | 44.9 | -1.1 | -1.8 | 214 | 98.9 | 44.9 | -0.1
13 | V336F | 30 | -16 | 8.95 | 216 | 88.2 | 34 | -11
14 | Y390A | 43 | -3 | 1.42 | 303 | 95.7 | 45.1 | 0.1
15 | L335A | 38.5 | -7.5 | 3.51 | 231 | 93.6 | 40 | -5
16 | E261A | – | – | – | – | – | 46.2 | 1.2
17 | F251A | 42.2 | -3.8 | 2.8 | 219 | 94.3 | 42.4 | -2.6
18 | S247A | – | – | – | – | – | 45.3 | 0.3
19 | Y420A | 37 | -9 | 5.94 | 200 | 91.2 | 37.2 | -7.8
20 | S337F | – | – | – | – | – | 40.4 | -4.58
